# Results as given in the nanobody polyreactivity screen of Harvey et al. (2022).
# Test: yeast display, Sf9 membrane polyspecificity reagent, FACS + sequencing; frameworks hold sequencing errors
# Method in brief: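 Galactose induction of a Saccharomyces cerevisiae BJ5465 synthetic nanobody display library ran 36–48 hours. The cells were then stained for 1 hour at 4 °C with 10% biotinylated, detergent-solubilized Sf9 membrane reagent, pulled down on streptavidin microbeads and FACS-sorted into low and high (top ~1%) gates on expression and reagent-binding fluorescence. Labels for polyreactivity follow the gate of origin.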
row,Sequence,polyreactivity (PSR sort gate)
1,QVQLVESGGGLVQAGGSLRLSCAASGRIFVINAMGWYRQAPGKERELVAAISSSGGSTSYADSVKGRFTISRDNAKNTVYFQMNSLKPEDTAVYYCAAKPRVRRVDGYYWGQGTQVTVSS,high polyreactivity
2,QVQLVESGGGLVQAGGSLRLSCAPSGRIFSYNTMGWYRQAAGKERELVAAISSSGGSTYYADSVKGRFTISRDNAKNTFYLQMNSLKPEDTALYYCNAVGRFSTRREYWGQGTQVTVSS,high polyreactivity
3,QVQLVESGGGLVQAGGSLRLSCAASGITFTSYVMGWYRQAPGKERELVAAIRWSGGRTYYADSVKGRFTISRDNAKNTVYLQMNSLKPEDTAVYYCNADYAYNSYGYRFYYWGQGTQVTVSS,high polyreactivity
4,QVQLVESGGGLVQAGGSLRLSCAASGSTFTVYAMRWYRQAPGKERELVADITGGGRTYYADSVKGRFTISRDNAKNTVYLQMNSLKPEDTAVYYCAKKYSWRYARVYSLHFDYWGQGTQVTVSS,high polyreactivity
5,QVQLVESGGGLVQAGGSLRLSCAASGSIFQYNAMGGSRQSPGEDRELVAAISRSGGSTYYADSVKGRFTNSRDNAKNTVYLQMNSLKPEDTAVYYCNAVLGYYSPYDYWVQGTQVTVSS,low polyreactivity
6,QVQLVDSGGGLVQAGGSLRLSCAASGSIFSVYSMGGNRQATGKERELVASISRTGTTNYADSVKGSFTISRDNAKNTVYLQMNSLKPEDTAVFYCATDFTDWDVFLIKEFGYDYWGQGTQVTVSS,low polyreactivity
7,QVQLVESGGGLDQAGGSLRLICAASGGTSQRYVMGWYRQAPGKERELVAAITKSGVRTYYADSVKGRFTISRDNAKNKVYLQMNSLKPEDTAVYYCAAKTPTKDRGSDFDYWGQGTQVTVSS,high polyreactivity
8,QVQLVESGGGLVQAGGSLRLTCAASGRTFRGYVKAWSRQAPGKERELVAAISWSGGSTYYADSVKGRFTISRDNAKNSVYLQMKSLKPEDTAVYYCAARRYSYVGGQGSDYWGQGTLVTVSS,high polyreactivity
9,QVQLVESGGGLVQAGGSLRLSCAASGLIFYYYSMGWYRQAPGKERELVAAISGGGSTYYADSVKGRFTISRDNAKNTVYLQMNSLKPEDTAVYYCAADTRTSYYKDDYDYWGQGTQVTVSS,low polyreactivity
10,QVQLVESGGGLDQAGGSLRLSCAASGSTFGVYAMGWYRQAPGKERELVAAISSSTGSTYYADSVKGRFTISRDNAKNTVYLQMNSLKPEDTAVYYCAAEYDGPYYSFYPEQRYYWGQGTQVTVSS,low polyreactivity
11,QVQLVESGGGLVQAGGSLRLSCAASGYIFGGNAMGSYRPAPGNPRELVAAISSSSGGTYYADSVKGRFTISRDNAKNTVYLQMNSLKPEDTAVYYCAAAPVDYEYDYWGQGTQVTVSS,low polyreactivity
12,QVQLVESGGGIVQAGGSLRLSCAASGYTFGTYAMGWYRQAPGKERELVAAITSTGGRTYYADSVKGRFTISRDNAKNTVYLQMNSLKPEDTAVYYCAAERVYRTIWHYPYYYWGQGTQVTVSS,high polyreactivity
13,QVQIVESGRGLFQAGGSLRLSCAASGSIFRFNVMGWYRPATGKECELVASISDSGDNTNYADSVKGRFTISGDNAKNPVDLLMNSLKPEDTAVYYCAARGSRWYIAVDYRGQGTQVTVSS,low polyreactivity
14,QVHLVESGGGLVQAGGSLRLSCSASGRTFPKYAMGWYRQAPGKERELVAAINKSGGSRYYADSVKGRFTISRDYAKNTVYLQMNSLKPEDTAVYYCAADWRGWSFFRGDDYWGQGTQVTVSS,high polyreactivity
15,QVQLVESGGGLVQAGGSLRLSCAASGSILSSYAMGWYRQAPGKERELVAAISYTGDSTYYADSVKGRFTISRDNAKNTVYLQMNSLKPEDTAVYYCAAELLPPYYYRWLEYWGQGTQVTVSS,low polyreactivity
16,QVQLVESGGGLVQAGGSLRLSCAASGFTFWYYTMGWYRQAPGKERELVAAITGRGGTTHYADSVKGRFTISRDNAKNTVYLQMNSLKPEDTAVYYCAARAYRPSLSVVRGGYWGQGTQVTVLS,high polyreactivity
17,QVQLVESGGGLVQAGGSLRLSCAASGRTFYVYTMGLYRQAPGKELELVAAISSSGGSTYYADSVKGRFTISRDNAKNTVYLQMNSLKPEDTAVYYCNSQWSLTRYGYWGQGTQVTVSS,high polyreactivity
18,QVQLVESAGGLDQAGGSLRLSCAASGFTFSVYVMGWYRQAPGKERELVASISKRGGSTTYADSVKGRFTISRDNAKNTVYLQMNSLKPEDTAVYYCAALGPGYYWGQGTQVTVSS,high polyreactivity
19,QVQLVESGGGLVQAGGSLRLSCAASGSTFRYYAMGWYRQAPGKERELVAAISRRGGSSYYADSVKGRFTISRDNAKKTVYLQMNSLKPEDTAVYYCNAAASTFTSWIRGPGVCYDYWGQGTQVTVSS,high polyreactivity
20,QVQLVESGGGLVQAGGSLRLSCAASGRTFRGYVMGWYRQAPGKERELVAAISKSGGSTYYADSVKGRFTISRDNAKNTVYLQMNSLKPEDTAVYYCSKNYRYSVFYDGFDYWGQGTQVTVSS,low polyreactivity
21,QVQLVESGGGLVQAGGSLRLSCAASGFIFDQYAMGWYRQAPGKERELVAAISSGGRTYYADSVKGRFTISRDNAKNTVYLQMNSLKPEDTAVYYCAAKSWTDSRVTGYWGQGTQVTVSS,high polyreactivity
22,QVQLVESGGGLVQAGGSLRLSCAASGSTSASYAMGWYRKAPGKERELVAAISGRGTTTYYADSVKGRFTISRDIAKNSVYLQMNSLKPEDTAVYYCAVYRRGGVEAFLYWGQGTQVTVSS,high polyreactivity

row,Sequence,polyreactivity (PSR sort gate)
1,QVQLVESGGGLVQAGGSLRLSCAASGRTFRSYAMGWYRQAPGKERELVAVISSDGSTYYADSVKGRFTISRDNAKNTVYLQMNSLKPEDTAVYYCAAEYTFEEIGGVEFDYWGQGTQVTVSS,low polyreactivity
2,QVQLVESGGGLVQAGGSLRLSCAASGFTFISNAMGWYRQAPGKERELVAAISGRGGRTYYADSVKGRFTISRDNAKNTVYLQMNSLKPEDTAVYYCNAVFRKLHYDYWGQGTQVTVSS,high polyreactivity
3,QVQLVESGGGLVQAGGSLRLSCAASGFNIGDYAMGWYRQAPGKERELVAAITISGGGTYYADSVKGRFTISRDNAKNTVYLQMNSLKPEDTAVYYCAAGYYDLNLDTDFGFDYWGQGTQVTVSS,low polyreactivity
4,QVQLVESGRCLVQAGCSLRLSCAASGYTFSRSAMGWYRQAPGKERELVAAISWSGGSTYYADSVKGRFTISRDNAKNTVYLQMNSLKPEDTAVYYCIKVRYVSQTAFYYWGQGTQVTVSS,high polyreactivity
5,QVQLVESGGGLVQAGGSLRLSCAASGRIFPQYAMGWYRQAPGKERELVAGITSVGSTYYADSVKGRFTISRDNAKTTVYLQMNSLKPEDTAVFYCAAVPSRYVRANRRTYRYYYWGQGTQVTVSS,high polyreactivity
6,QVQLVESGGGLVQAGGSLRLSCAASGSIQGYVMGWYRQAPGKERELVAAITNGGSTYYADSVKGRFTISRDNAKNTVYLQMISLKPEDTAVYYCAKRKFRWPYQGSYSYIPFGYWGQGTQVTVSS,high polyreactivity
7,QVQLVESGGGLVQAGGSLRLSCAASGSIFKNYAMGWYRQAPGKERELVASITTGASTNYADSVKGRFTISRDNAKNTVYLQMNSLKPEDTAVYYCAKGGRTFRYFVAPRTFDHGYWGQGTQVTVSS,high polyreactivity
8,QVQLVESGVGLVQAGGSLRISCAASGFIFDWNAMGWYRQAPGKERELVAAISSGGSTHYADSVKGRFTISRDNAKNTVYLQMNSLKPEDTAVYYCAARFPQWRYSRRTGERFDYWGQGTQVTVSS,low polyreactivity
9,QVQLVESGGGLVQAGGSLRLSCAASGGIFKYNAMGWYRQAPGKERELVAAIDTSGGSTYYADSVKGRFTISRDKAKNTVYLQMNSLKPDDTAVYYCAAELCLAQYYYWGQGTQVTVTS,low polyreactivity
10,QVQLVESGGGLVQAGGSLRLSCAASGSIIGRNAMGWYRQAPGKERELVAAISTRGGRTYYADSVKGRFTISRDNAKNTVYLQMNSLKPEDTAVYYCADTYQYLKSGYYWGQGTQVTVSS,high polyreactivity
11,QVQLVESGGGLVQAGGSLRLSCAASGRIFSFNAMGRYRQAPGKERELVAAITWRGGSTYYADSVKGRFTISRDNAKNTVYLQMNSLKPEDTAVYYCNAYPFWRDYDYWGQGTQVTVSS,high polyreactivity
12,QVQLVESGGGLVQAGGSLRLSCAASGRILTSNAMGWSRQAPGKERELVAAISWSGGSTYYADSVKGRFTISRDNAKNTVYLQMNSLKPEDTAVYYCAAPFTTTFDYWGQGTQVTVSS,low polyreactivity
13,QVQLVESGGGLVQAGGSLRLSCAASGFIFATNNMGWYRQAPGKERELVAASSTYYADSVKGRFTISRDNAKNTVYLQMNSLKPEDTAVYYCNALYRYLYRSGDYWGLGTQVTVSS,low polyreactivity
14,QVQLVESGGGLLQAGGSLRLSCAASGSTFSRYTMGWYRQAPGKERELVAAISYRGGSTYYADSVKGRFTISRDNAKNTVYLQMNSLKPEDTAVYYCAAEFRVEGSDYDYWGQGTQVTVSS,low polyreactivity
15,QDQLVESGGGLVQAGGSLRLSCAASGITFNAYVMGWYRQAPGKERELVAAISVSDDYTYYADSVKGRFTISRDNAKNTVYLQINSLKPEDTAVYYCAAEWWDVIAPYDYWGQGTQVTVSS,low polyreactivity
16,QVQLVESGGGLVQAGGSLRLSCAASGRTFRANTMGWYRQAPGKERELVAAISDRGGSTYYADSVKGRFTISRDNAKNTVYLQMNSLKPEDTAVYYCAARNTPAQLDYWGQGTQVTVSS,low polyreactivity
17,QVQLVESGGGLVQAGGSLRLSCAASGSTFTPNAMGWYRQVPGKERELVASITIGGSTYADSVKGRFTISRDNAKNTVYLQMNSLKPEDTAVYYCNADWNWYPFLYSRMDYWGQGTQVTVSS,low polyreactivity
18,QVQLVESGGGLVQAGGSLRLSCAASGRTFYSNAMGWYRQAPGKERELVAAISYRGGRTYYADSVKGRFTISRDNAKNTVYLQMNSLKPEDTAVYYSAADAYVLFYGDWYECDYWGQGTQVTVSS,high polyreactivity
19,QVQLVESGGGLVQAGGSLRLSCAASGSIFGPYAMGWYRQAPWKERELVATSTYYADSVKGRFTISRDNAKNTVYLQMNSLKPEDTAVYYCAKTPYYSGYGWGYDYWGQGTQVTVSS,low polyreactivity
20,QDQLVESGGGLVQAGGSLRLSCAASGRTFAYNAMGWYRQAPGKERELVADITSGGSTYYADSVKGRFTIARDNAKNKVYLQMNSLKPEDTAVYYCAAYTQFWYWDYNYWGQGTQVTVSS,high polyreactivity
21,HVQLVESVGGLVQAGGSLRLRCAASGSIFYRNAMGWYRKAPGKERELVAAISSDGSTNYADSVKGRFTISRDNAKNSVYFQMNSLKPEDTAVYYCAAPWTQILDYWGQGTQVTVSS,low polyreactivity
